The results in this text go back to the RNAGym collection of RNA variant scans (doi:10.1073/pnas.2313332121).

First the molecules themselves.
B1: TPR t1 (parent)
chain: GACCAAUCUGCCCUCAGAGCUCGAGAACAUCUUCGGAUGCAGAGGAGGCAGGCUUCGGUGGCGCGAUAGCGCCAACGUCCUCAACCUCCAAUGCAUCCCACCACAUGAUGAUGCCUGAAGAGCCUUGGUUUUUUG

In this series the parent is B1. Put plainly: polymerase ribozyme fitness, log enrichment relative to wild type (log ratio); higher = more active; in vitro selection for triplet polymerase activity. In outline: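 Frozen incubation at −7 °C formed the core of a single, triplicate in vitro selection round applied to PCR-built, transcribed mutant libraries of each subunit of a heterodimeric triplet polymerase ribozyme. Extended constructs were gel-excised, captured with streptavidin beads and amplified by RT-PCR, and input and output libraries were Illumina-sequenced with a filter of ≥10 input reads and ≥1 read per output. Fitness is the logarithm of genotype enrichment relative to wild-type enrichment, with inverse-variance-weighted replicate averaging, and the logarithm is base 2.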
As for GACCAAUCUGCCCUCAGAGCUCGAGAACAUCUUCGGAUGCAGAGGAGGCAGGCUUCGGUGGCCCGAUAGCGCCAACGUCCUCAACCUCCAAUGCAACCCACCACAUGAUGAUGCCUGAAGAGCCUUGGUUUUUUG, the “polymerase ribozyme fitness (log ratio)” value was -2.05.

In the case of GACCAAUCUGCCCUCAGAGCUCGAGAACAUCUUCGGAUGCAGAGGAGGCAGGCUUCGGUGGCUCGAUAGCGCCAACGUCCUCAGCCUCCAAUGCAUCCCACCACAUGAUGAUGCCUGAAGAGCCUUGGUUUUUUG, the “polymerase ribozyme fitness (log ratio)” value was -2.18.

On to GACCAAUCUGCCCUCAGAGCUCGAGAACAUCUUCGGAUGCAGAGGAGGCAGGCUUCGGUGGCCCGAUAGCGCCAACGUCCUCAACCUCCAAUGCAUUCCACCACAUGAUGAUGCCUGAAGAGCCUUGGUUUUUUG, for which the “polymerase ribozyme fitness (log ratio)” value was -0.711.

As for GACCAAUCUGCCCUCAGAGCUCGAGAACAUCUUCGGAUGCAGAGGAGGCAGGCUUCGGUGGCUCGAUAGCGCCAACGUCCUCAACCUCCACUGCAUCCCACCACAUGAUGAUGCCUGAAGAGCCUUGGUUUUUUG, the “polymerase ribozyme fitness (log ratio)” value is -3.19.

For GACCAAUCUGCCCUCAGAGCUCGAGAACAUCUUCGGAUGCAGAGGAGGCAGGCUUCGGUGGCCCGAUAGCGCCAACGUCCUCAACCUCCAAUGCAUCCCACCACAUGAUGAUGCCUGAAGAGCCUUGGUUUUUUU, the “polymerase ribozyme fitness (log ratio)” value is -1.25.

As to GACCAAUCUGCCCUCAGAGCUCGAGAACAUCUUCGGAUGCAGAGGAGGCAGGCUUCGGUGGCCCGAUAGCGCCAACGUCCCCAACCUCCAAUGCAUCCCACCACAUGAUGAUGCCUGAAGAGCCUUGGUUUUUUG, the “polymerase ribozyme fitness (log ratio)” value was -0.941.

For GACCAAUCUGCCCUCAGAGCUCGAGAACAUCUUCGGAUGCAGAGGAGGCAGGCUUCGGUGGCCCGAUAGCGCCAACGUCCUCAACCUCCAAUGCAUCCCACCACAUGAUGAUGCCUGAAGAGCCUUGGAUUUUUG, the “polymerase ribozyme fitness (log ratio)” value was -2.09.

Regarding GACCAAUCUGCCCUCAGAGCUCGAGAACAUCUUCGGAUGCAGAGGAGGCAGGCUUCGGUGGCCCGAUAGCGCCAACGUCCUCAACCUCCAAUGCAUCCCACCACAUGAUGAUGCCUGAAGAGCCUUGGCUUUUUG, the “polymerase ribozyme fitness (log ratio)” value is -2.

In the case of GACCAAUCUGCCCUCAGAGCUCGAGAACAUCUUCGGAUGCAGAGGAGGCAGGCUUCGGUGGCCCGAUAGCGCCAACGUCCUCAACCUCCAAUGCAUCCCACCACAUGAUGAUGCCUGAAGAGCCUUGGGUUUUUG, the “polymerase ribozyme fitness (log ratio)” value was -1.93.

Turning to GACCAAUCUGCCCUCAGAGCUCGAGAACAUCUUCGGAUGCAGAGGAGGCAGGCUUCGGUGGCCCGAUAGCGCCAACGUCCUCAACCUCCAAUGCAUCCCACCACAUGAUGAUGCCGGAAGAGCCUUGGUUUUUUG, the “polymerase ribozyme fitness (log ratio)” value was -2.02.

GACCAAUCUGCCCUCAGAGCUCGAGAACAUCUUCGGAUGCAGAGGAGGCAGGCUUCGGUGGCUCGAUAGCGCCAACGUCCUCGACCUCCAAUGCAUCCCACCACAUGAUGAUGCCUGAAGAGCCUUGGUUUUUUG: the “polymerase ribozyme fitness (log ratio)” value is -1.76.

On to GACCAAUCUGCCCUCAGAGCUCGAGAACAUCUUCGGAUGCAGAGGAGGCAGGCUUCGGUGGCCCGAUAGCGCCAACGUCCUCAACCUCCAAUACAUCCCACCACAUGAUGAGGCCUGAAGAGCCUUGGUUUUUUG, for which the “polymerase ribozyme fitness (log ratio)” value was -0.619.

GACCAAUCUGCCCUCAGAGCUCGAGAACAUCUUCGGAUGCAGAGGAGGCAGGCUUCGGUGGCCCGAUAGCGCCAACGUCCCCAACCUCCUAUGCAUCCCACCACAUGAUGAUGCCUGAAGAGCCUUGGUUUUUUG: the “polymerase ribozyme fitness (log ratio)” value was -3.06.

GACCAAUCUGCCCUCAGAGCUCGAGAACAUCUUCGGAUGCAGAGGAGGCAGGCUUCGGUGGCCCGAUAGCGCCAACGUCCUCAACCUCCAAUGCAUCGCACCACAUGAUGAUGCCAGAAGAGCGUUGGUUUUUUG: the “polymerase ribozyme fitness (log ratio)” value is -5.39.

For the variant GACCAAUCUGCCCUCAGAGCUCGAGAACAUCUUCGGAUGCAGAGGAGGCAGGCUUCGGUGGCCCGAUAGCGCCAACGUCCUCAACCUCCAAAGCAUCUCACCACAUGAUGAUGCCUGAAGAGCCUUGGUUUUUUG, the “polymerase ribozyme fitness (log ratio)” value was -5.26.

GACCAAUCUGCCCUCAGAGCUCGAGAACAUCUUCGGAUGCAGAGGAGGCAGGCUUCGGUGGCCCGAUAGCGCCAACGUCCUCAACCGCCAAUGCAUCCCACCACAUGAUGAUGCCUGAAGAGCCUUGGUUUUUUG: the “polymerase ribozyme fitness (log ratio)” value is -0.832.

With GACCAAUCUGCCCUCAGAGCUCGAGAACAUCUUCGGAUGCAGAGGAGGCAGGCUUCGGUGGCCCGAUAGCGCCAACGUCCUCAACCCCCAAUGCAUCCCACCACAUGAUGAUGCCUGAAGAGCCUUGGUUUUUUG, the “polymerase ribozyme fitness (log ratio)” value is -0.645.

GACCAAUCUGCCCUCAGAGCUCGAGAACAUCUUCGGAUGCAGAGGAGGCAGGCUUCGGUGGCCCGAUAGCGCCAACGUCCUCAACCACCAAUGCAUCCCACCACAUGAUGAUGCCUGAAGAGCCUUGGUUUUUUG: the “polymerase ribozyme fitness (log ratio)” value was -1.59.

Turning to GACCAAUCUGCCCUCAGAGCUCGAGAACAUCUUCGGAUGCAGAGGAGGCAGGCUUCGGUGGCUCGAUAGCGCCAACGUCCUCAACCUCCAAUGCUUCCCACCACAUGAUGAUGCCUGAAGAGCUUUGGUUUUUUA, the “polymerase ribozyme fitness (log ratio)” value was -0.147.

Consider GACCAAUCUGCCCUCAGAGCUCGAGAACAUCUUCGGAUGCAGAGGAGGCAGGCUUCGGUGGCUCGAUAGCGCCUACAUCCUCAACCUCCAAUGCAUCCCACCACAUGAUGAUGCCUGAAGAGCCUUGGUUUUUUG, for which the “polymerase ribozyme fitness (log ratio)” value was -5.16.

As to GACCAAUCUGCCCUCAGAGCUCGAGAACAUCUUCGGAUGCAGAGGAGGCAGGCUUCGGUGGCCCGAUAGCGCCAACGCCCUCAACCUCCAAUGCAUCCCACCACAUGAUGAUGCCUGAAGAGCCUUGGUUUUUUG, the “polymerase ribozyme fitness (log ratio)” value is -1.55.
